One molecule from publication PMC3046058 (Molecular Biology of the Cell, 2011) can be followed below.

For this test, the target named is His/S-tagged OCRL1, full length, recombinant (human, UniProt Q01968 1-901). The test can be described thus: pull-down.
Sequence of His/S-tagged OCRL1, full length, recombinant (Q01968 whole entry): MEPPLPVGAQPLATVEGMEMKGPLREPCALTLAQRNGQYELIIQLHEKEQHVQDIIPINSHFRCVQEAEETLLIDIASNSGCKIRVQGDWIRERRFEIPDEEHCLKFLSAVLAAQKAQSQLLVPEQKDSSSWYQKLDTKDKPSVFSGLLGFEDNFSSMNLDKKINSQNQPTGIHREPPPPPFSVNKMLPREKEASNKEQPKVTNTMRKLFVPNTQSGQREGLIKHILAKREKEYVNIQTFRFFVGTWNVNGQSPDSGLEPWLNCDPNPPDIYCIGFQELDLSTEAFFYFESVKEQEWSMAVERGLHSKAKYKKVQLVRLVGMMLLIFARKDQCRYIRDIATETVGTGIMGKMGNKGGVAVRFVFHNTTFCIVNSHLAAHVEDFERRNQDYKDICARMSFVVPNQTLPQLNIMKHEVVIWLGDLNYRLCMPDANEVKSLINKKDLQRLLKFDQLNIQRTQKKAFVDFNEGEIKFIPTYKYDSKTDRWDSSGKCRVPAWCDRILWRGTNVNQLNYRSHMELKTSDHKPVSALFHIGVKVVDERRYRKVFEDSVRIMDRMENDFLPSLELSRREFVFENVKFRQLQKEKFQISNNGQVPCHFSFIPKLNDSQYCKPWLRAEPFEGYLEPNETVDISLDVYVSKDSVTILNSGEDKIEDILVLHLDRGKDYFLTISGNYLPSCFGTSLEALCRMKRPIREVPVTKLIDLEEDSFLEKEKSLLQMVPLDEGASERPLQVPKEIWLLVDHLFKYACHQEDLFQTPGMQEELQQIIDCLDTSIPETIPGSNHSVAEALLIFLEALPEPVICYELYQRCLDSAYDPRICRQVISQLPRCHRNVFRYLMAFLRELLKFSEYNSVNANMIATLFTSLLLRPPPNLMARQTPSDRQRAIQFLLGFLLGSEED

As to SFQQRHESLRP [GST APPL1 (aa 403-413), minimal OCRL1 binding domain of APPL1], the binding result is “binds”.
